Our source for the Potency luciferase assay values is US20100222269A1 (Novo Nordisk, published 2010).

B1: N-alpha-[(S)-4-carboxy-4-(19-carboxynonadecanoylamino)butyryl]-Glu-Glu-Arg-[Glu1]-pramlintide (1-37) (peptide)
peptide: EERECNTATCATQRLANFLVHSSNNFGPILPPTNVGSNTY
modifications: N-alpha-[(S)-4-carboxy-4-(19-carboxynonadecanoylamino)butyryl] on the N-terminal Glu of the extension; disulfide bridge between the two Cys; C-terminal amide
B2: N-alpha-(17-carboxyheptanoyl)-[Arg18,Leu23,Val26]-pramlintide (2-37) (peptide)
peptide: {17‑carboxyheptanoyl}-CNTATCATQRLANFLVRSSNNLGPVLPPTNVGSNTY-NH2
modifications: disulfide 1-6 (inferred); reading uncertain; also: printed as N-alpha-(17-carboxyheptanoyl)-[Arg18,Leu23,Val26]-pramlintide (2-37)
B3: N-alpha-[(S)-4-carboxy-4-(17-carboxyheptadecanoylamino)butyryl]-[Arg18,Leu23,Val26]-pramlintide (2-37) (peptide)
peptide: CNTATCATQRLANFLVRSSNNLGPVLPPTNVGSNTY
modifications: N-alpha-[(S)-4-carboxy-4-(17-carboxyheptadecanoylamino)butyryl] on the N-terminal Cys2; disulfide bridge between the two Cys; C-terminal amide
B4: N-alpha-(2-{2-[2-(2-{2-[2-((S)-4-Carboxy-4-{4-carboxy-4-[4-carboxy-4-(17-carboxyheptadecanoylamino)butyrylamino]butyrylamino}butyrylamino) … (peptide)
peptide: CNTATCATQRLANFLVRSSNNLGPVLPPTNVGSNTY
modifications: N-alpha-(2-{2-[2-(2-{2-[2-((S)-4-Carboxy-4-{4-carboxy-4-[4-carboxy-4-(17-carboxyheptadecanoylamino)butyrylamino]butyrylamino}butyrylamino) ethoxy}ethoxy]acetylamino)ethoxy}ethoxy]acetyl) on the N-terminal Cys2; disulfide bridge between the two Cys; C-terminal amide
B5: N-alpha-(17-carboxyheptanoyl)-Glu-[Glu1]-pramlintide (1-37) (peptide)
peptide: {17‑carboxyheptanoyl}-EECNTATCATQRLANFLVHSSNNFGPILPPTNVGSNTY-NH2
modifications: disulfide 3-8 (inferred); reading uncertain; also: printed as N-alpha-(17-carboxyheptanoyl)-Glu-[Glu1]-pramlintide (1-37)
B6: N-alpha-(17-carboxyheptanoyl)-[Arg18]-pramlintide (1-37) (peptide)
peptide: {17‑carboxyheptanoyl}-KCNTATCATQRLANFLVRSSNNFGPILPPTNVGSNTY-NH2
modifications: disulfide 2-7 (inferred); reading uncertain; also: printed as N-alpha-(17-carboxyheptanoyl)-[Arg18]-pramlintide (1-37)

Starred links: 1 amine or outer side, 2 acyl side, 3 side chain; linkers in the order of their positions; H or OH if unused. Positions of bridges follow the written chain, without caps; N, C: chain ends. Non-standard residues stand in square brackets, D forms with d. Groups on a side chain read outwards from the residue. No end group written: not given here. *: point of attachment. C20 diacid = O=C(O)CCCCCCCCCCCCCCCCCCC(=O)*; C18 diacid = O=C(O)CCCCCCCCCCCCCCCCC(=O)*; 17‑carboxyheptanoyl = not defined here; γGlu = O=C(O)[C@H](CCC(=O)[*:2])N[*:1]; AEEA = NCCOCCOCC(=O)O

The target in this assay is Amylin 3(a) receptor (human calcitonin receptor (CTa) with RAMP-3) on BHK570 cells (human, UniProt P30988 25-474). Put plainly: cell-based or functional assay.
Amylin 3(a) receptor (human calcitonin receptor (CTa) with RAMP-3) on BHK570 cells, sequence (P30988 25-474): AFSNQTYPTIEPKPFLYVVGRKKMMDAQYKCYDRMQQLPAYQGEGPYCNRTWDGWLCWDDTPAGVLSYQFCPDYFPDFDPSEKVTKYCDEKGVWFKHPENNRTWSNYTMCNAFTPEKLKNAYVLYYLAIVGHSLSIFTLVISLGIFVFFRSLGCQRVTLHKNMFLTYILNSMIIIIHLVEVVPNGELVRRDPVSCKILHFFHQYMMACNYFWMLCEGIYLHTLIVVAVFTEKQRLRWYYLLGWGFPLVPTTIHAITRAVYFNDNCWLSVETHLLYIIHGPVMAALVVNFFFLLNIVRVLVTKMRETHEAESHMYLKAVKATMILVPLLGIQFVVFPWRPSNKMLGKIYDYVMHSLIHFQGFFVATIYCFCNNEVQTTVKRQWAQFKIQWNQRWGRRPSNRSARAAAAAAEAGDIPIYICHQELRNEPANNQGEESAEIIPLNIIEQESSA
Consider KCK([AEEA-Glu-Glu-C20 diacid])TATCATQRLANFLVRSSQNLGPVLPPTNVGSNTY-NH2 (disulfide 2-7 (inferred)), for which the Potency luciferase assay worked out at 0.3 nM.
KCK(C20 diacid)TATCATQRLANFLVHSSNNFGPILPPTNVGSNTY-NH2 (disulfide 2-7 (inferred)) [N-epsilon3-(19-carboxynonadecanoyl)-[Lys3]-pramlintide (1-37)]: the Potency luciferase assay stood at 0.05 nM.
For the molecule KCK(C18 diacid)TATCATQRLANFLVHSSNNFGPILPPTNVGSNTY-NH2 (disulfide 2-7 (inferred)) [N-epsilon3-(17-carboxyheptadecanoyl)-[Lys3]-pramlintide (1-37)], the Potency luciferase assay amounted to 0.05 nM.
For CK([γGlu-4‑(16-1H-tetrazol-5-ylhexadecanoylsulfamoyl)butyryl])TATCATQRLANFLVHSSNNFGPILPPTNVGSNTY-NH2 (disulfide 1-6 (inferred)), the Potency luciferase assay stood at 0.04 nM.
Turning to ECK(17‑carboxyheptanoyl)TATCATQRLANFLVESSNNFGPILPPTNVGSNTY-NH2 (disulfide 2-7 (inferred)) [N-epsilon3-(17-carboxyheptanoyl)-[Glu1,Lys3,Glu18]-pramlintide (1-37)], the Potency luciferase assay was 0.03 nM.
The value for B1 was 0.3 nM; that for KCK([AEEA-AEEA-γGlu-γGlu-γGlu-C18 diacid])TATCATQRLANFLVPSSNNFGPILPPTNVGSNTY-NH2 (disulfide 2-7 (inferred)) was 20 nM; that for {C18 diacid}-EERECNTATCATQRLANFLVHSSNNFGPILPPTNVGSNTY-NH2 (disulfide 5-10 (inferred)) [N-alpha-(17-carboxyheptadecanoyl)-Glu-Glu-Arg-[Glu1]pramlintide (1-37)] was 0.06 nM.
The value for KCK([AEEA-AEEA-γGlu-C18 diacid])TATCATQRLANFLVPSSNNFGPILPPTNVGSNTY-NH2 (disulfide 2-7 (inferred)) was 10 nM; that for {C20 diacid}-EERECQTATCATQRLANFLVRSSQNLGPVLPPTNVGSNTY-NH2 (disulfide 5-10 (inferred)) [N-alpha-(19-carboxynonadecanoyl)-Glu-Glu-Arg-[Glu1,Gln3,Arg18,Gln21,Leu23,Val26]-pramlintide (1-37)] was 0.09 nM; that for B2 was 0.1 nM.
As to {C20 diacid-γGlu}-KKCNTATCATQRLANFLVHSSNNFGPILPPTNVGSNTY-NH2 (disulfide 3-8 (inferred)) [N-alpha-[(S)-4-carboxy-4-(19-carboxynonadecanoylamino)butyryl]-Lys-pramlintide (1-37)], the Potency luciferase assay is 0.1 nM.
Take KCK([AEEA-AEEA-γGlu-C20 diacid])TATCATQRLANFLVHSSNNFGPILPPTNVGSNTY-NH2 (disulfide 2-7 (inferred)): the Potency luciferase assay turned out to be 0.3 nM.
The result for {C20 diacid-γGlu}-RRCNTATCATQRLANFLVHSSNNFGPILPPTNVGSNTY-NH2 (disulfide 3-8 (inferred)) [N-alpha-[(S)-4-carboxy-4-(19-carboxynonadecanoylamino)butyryl]-Arg-[Arg1]-pramlintide (1-37)] reads 0.1 nM; that for KCK([AEEA-AEEA-C18 diacid])TATCATQRLANFLVHSSNNFGPILPPTNVGSNTY-NH2 (disulfide 2-7 (inferred)), 0.1 nM.
Regarding KCK([Glu-Glu-Glu-Glu-C20 diacid])TATCATQRLANFLVRSSQNLGPVLPPTNVGSNTY-NH2 (disulfide 2-7 (inferred)), the Potency luciferase assay worked out at 0.6 nM.
The value for B3 was 0.03 nM; that for B4 was 0.9 nM; that for {C20 diacid}-E[AEEA]ECQTATCATQRLANFLVRSSQNLGPVLPPTNVGSNTY-NH2 (disulfide 4-9 (inferred)) was 0.4 nM.
For the molecule K([γGlu-C18 diacid])CGTATCATQRLANFLARSSNNFGPILSPTNVGSNTY-NH2 (disulfide 2-7 (inferred)), the Potency luciferase assay was 0.07 nM.
The result for KCNTATCATQRLANFLVHSSNNFGK([γGlu-C18 diacid])ILPPTNVGSNTY-NH2 (disulfide 2-7 (inferred)) [N-epsilon25-[(S)-4-carboxy-4-(17-carboxyheptadecanoylamino)butyryl]-[Lys25]-pramlintide (1-37)] reads 0.09 nM; that for KCK([γGlu-C18 diacid])TATCATQRLANFLVPSSNNFGPILPPTNVGSNTY-NH2 (disulfide 2-7 (inferred)) [N-epsilon3-[(S)-4-carboxy-4-(17-carboxyheptadecanoylamino)butyryl]-[Lys3,Pro18]-pramlintide (1-37)], 0.7 nM; that for EERECNTATCATQRLANFLVHSSNNFGPILPPTNVGSNTY-NH2 (disulfide 5-10 (inferred); not fully specified (N-terminus)), 2 nM.
On to EERECNTATCATQRLANFLVHSSNNFGPILPPTNVGSNTY-NH2 (disulfide 5-10 (inferred); not fully specified (N-terminus)) [N-alpha-[4-(16-1H-tetrazol-5-yl-hexadecanoylsulfamoyl)-butyryl]-Glu-Glu-Arg-[Glu1]pramlintide (1-37)], for which the Potency luciferase assay was 0.09 nM.
The value for KCNTATCATQRLANFLVHSSNNFGPILPK(C20 diacid)TNVGSNTY-NH2 (disulfide 2-7 (inferred)) [N-epsilon29-(19-carboxynonadecanoyl)-[Lys29]-pramlintide (1-37)] was 5 nM.
The result for KCK(17‑carboxyheptanoyl)TATCATQRLANFLVRSSNNFGPILPPTNVGSNTY-NH2 (disulfide 2-7 (inferred)) [N-epsilon3-(17-carboxyheptanoyl)-[Lys3,Arg18]-pramlintide (1-37)] reads 0.06 nM; that for B5, 0.4 nM.
The result for KCK([γGlu-C18 diacid])TATCATQRLANFLVRSSQNLGPVLPPTNVGSNTY-NH2 (disulfide 2-7 (inferred)) reads 0.04 nM.
{C20 diacid-γGlu}-RCNTATCATQRLANFLVHSSNNFGPILPPTNVGSNTY-NH2 (disulfide 2-7 (inferred)) [N-alpha-[(S)-4-carboxy-4-(19-carboxynonadecanoylamino)butyryl]-[Arg1]-pramlintide (1-37)]: the Potency luciferase assay amounted to 0.04 nM.
For B6, the Potency luciferase assay was 0.03 nM.
Turning to KCNTATCATQRLANFLVHSSNNFGK([AEEA-AEEA-γGlu-γGlu-γGlu-γGlu-C18 diacid])ILPPTNVGSNTY-NH2 (disulfide 2-7 (inferred)), the Potency luciferase assay was 0.3 nM.
The value for {C20 diacid}-EERECNTATCATQRLANFLVHSSNNFGPILPPTNVGSNTY-NH2 (disulfide 5-10 (inferred)) [N-alpha-(19-carboxynonadecanoyl)-Glu-Glu-Arg-[Glu1]-pramlintide (1-37)] was 0.08 nM; that for {C20 diacid-γGlu}-CNTATCATQRLANFLVHSSNNFGPILPPTNVGSNTY-NH2 (disulfide 1-6 (inferred)) [N-alpha-[(S)-4-carboxy-4-(19-carboxynonadecanoylamino)butyryl]-pramlintide (2-37)] was 0.1 nM.
On to {C20 diacid}-ERCNTATCATQRLANFLVHSSNNFGPILPPTNVGSNTY-NH2 (disulfide 3-8 (inferred)) [N-alpha-(19-carboxynonadecanoyl)-Glu-[Arg1]-pramlintide (1-37)], for which the Potency luciferase assay was 0.1 nM.
The result for KCK([AEEA-4‑(16-1H-tetrazol-5-yl-hexadecanoylsulfamoyl)butyryl])TATCATQRLANFLVHSSNNFGPILPPTNVGSNTY-NH2 (disulfide 2-7 (inferred)) reads 0.1 nM; that for {C20 diacid}-EER[AEEA]ECNTATCATQRLANFLVHSSNNFGPILPPTNVGSNTY-NH2 (disulfide 6-11 (inferred)), 0.4 nM.
Regarding {C20 diacid}-EEEECQTATCATQRLANFLVRSSQNLGPVLPPTNVGSNTY-NH2 (disulfide 5-10 (inferred)) [N-alpha-(19-carboxynonadecanoyl)-Glu-Glu-Glu-[Glu1,Gln3,Arg18,Gln21,Leu23,Val26]-pramlintide (1-37)], the Potency luciferase assay was determined as 2 nM.
